These results are taken from paper PMC12858339 (The Journal of Biological Chemistry, 2025).

This assay addresses T1, calmodulin (CaM), human calmodulin-1 (human, UniProt P0DP23 1-149).
T1 construct: also called CaM-NHS-Red
In words: MST; Red-NHS-labelled CaM kept constant (466 nM in the results, 50 nM in the methods), (myr)MAPP titrated; 50 mM Tris-HCl, 100 mM NaCl, 0.05% Tween 20, pH 7.4, with 20 mM CaCl2; 25 °C; triplicates. The note with it: both partners purified.

B1: myristoylated M-PMV MA protein extended by 18 amino acids of the downstream phosphoprotein region of Gag (myrMAPP) (domain or fragment)
chain: GQELSQHERYVEQLKQALKTRGVKVKYADLLKFFDFVKDTCPWFPQEGTIDIKRWRRVGDCFQDYYNTFGPEKVPVTAFSYWNLIKELIDKKEVNPQVMAAVAQTEEILKSNSQTDL
modifications: N-terminal myristoyl; uniformly 15N-labelled in some NMR and mixed-isotope XL-MS samples
notes: source: E. coli BL21 (DE3), co-transformed with a plasmid coding yeast N-myristoyl transferase, purified (Ni-NTA agarose)
On to B1, for which the Kd (commonly the constant that tells how readily two partners part at equilibrium) was determined as 4.2 µM.

B2: non-myristoylated M-PMV MA protein extended by 18 amino acids of the downstream phosphoprotein region of Gag (MAPP) (domain or fragment)
chain: B1 chain
As to B2, the Kd was 33 µM.
